Assays:
[1] = molecular target: T1, full length murine ALCAM1-583 (Mus musculus, UniProt Q61490); assay: Ang II-induced p65/PCNA expression in AT1R-CHO cells transfected with full length murine ALCAM (qRT-PCR); format: cell-based; conditions: Ang II 1 μM 2 h, co-transfection of the construct, vs pCIneo (FIG. 3B, 5B)
T1 construct: host or cells: AT1R-CHO (CHO stably transfected with human AT1R-Rluc8), transient transfection; untagged clone in pCMV6
T1 sequence (Q61490 28-583): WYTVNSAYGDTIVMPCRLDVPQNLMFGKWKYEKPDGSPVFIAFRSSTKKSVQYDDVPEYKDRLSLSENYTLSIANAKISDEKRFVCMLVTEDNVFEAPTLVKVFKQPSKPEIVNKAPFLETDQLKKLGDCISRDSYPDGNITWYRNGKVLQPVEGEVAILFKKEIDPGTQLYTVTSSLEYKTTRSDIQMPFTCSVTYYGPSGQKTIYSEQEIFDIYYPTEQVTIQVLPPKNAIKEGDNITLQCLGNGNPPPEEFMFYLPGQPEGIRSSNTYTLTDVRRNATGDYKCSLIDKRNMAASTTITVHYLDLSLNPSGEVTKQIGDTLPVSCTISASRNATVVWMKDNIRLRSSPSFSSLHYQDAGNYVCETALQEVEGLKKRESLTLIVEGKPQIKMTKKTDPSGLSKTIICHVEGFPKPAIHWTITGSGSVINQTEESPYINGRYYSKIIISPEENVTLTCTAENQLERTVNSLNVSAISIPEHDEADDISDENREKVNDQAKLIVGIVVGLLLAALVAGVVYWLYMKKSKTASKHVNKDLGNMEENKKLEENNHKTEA
Experimental: (§1) Adult retinal pigment epithelial (ARPE) cells were cultured in Dulbecco's modified Eagle's medium (DMEM)/F12 endothelial cell growth supplement (ECGS) supplemented media. Chinese Hamster Ovary (CHO) cells were cultured using F12 media (10% FCS with 2 mM glutamine). Human microvascular endothelial cells (HMEC) were cultured in MCDB 131 medium (10% FCS with 10 mM glutamine, EGF and hydrocortisone).
(§2) 100 ng of AT1R-Rluc8 construct was transfected into CHO cells using Lipofectamine 2000 (Thermo). Stable transfectants were selected using G418. AT1R-CHO were then transiently transfected with the IgSF CAM and/or RAGE constructs using Lipofectamine 2000 (Invitrogen) and incubated for 16h.
Oligonucleotides were designed and ordered to generate the ALCAM, BCAM and MCAM intracellular (cytosolic) domains. These included a 5′ NheI site, Kozak sequence and initiating Methionine and then DNA sequences corresponding to ALCAM residues 552-583, BCAM residues 569-628 and MCAM residues 584-637 respectively (Note that as residue 551 of ALCAM is Methionine, the cytosolic tail of ALCAM effectively corresponded to residues 551-583). The pCIneo parental vector was digested with NheI and NotI restriction enzymes, and the DNA of the fragments of the ALCAM, BCAM and MCAM tails/cytosolic domains were ligated into the digested plasmid. After transformation and recovery, colonies were screened and individual clones sequenced. The sequence of the insert was confirmed by DNA sequencing (Micromon, Monash University). A full-length clone of Mouse ALCAM (BC027280) was purchased from Origene. The untagged clone was supplied in the vector pCMV6. […]
(§3) After 2 hours of exposure to Ang II (1 μM) cells were placed in Trizol, mRNA extracted and cDNA synthesized. Changes in the gene expression of the NFκB subunit, p65 (RelA) or NFκB-activated target genes (e.g ICAM-1) were estimated by quantitative real-time RT-PCR, performed using the TaqMan system based on real-time detection of accumulated fluorescence (ABI Prism 7700, Perkin-Elmer Inc, PE Biosystems, Foster City, Calif., USA). […]

[2] = molecular target: T2, human ALCAM (ALCAM1-583, cytosolic tail ALCAM551-583) (Homo sapiens, UniProt Q13740); assay: Ang II-induced p65/PCNA expression in AT1R-CHO cells transfected with human ALCAM (full length or cytosolic tail); format: cell-based; conditions: Ang II 1 μM, co-transfection (FIG. 3G, 1E)
T2 construct: expressed in transfected cells; host or cells: AT1R-CHO (CHO stably transfected with human AT1R-Rluc8), transient transfection
T2 sequence (Q13740 551-583): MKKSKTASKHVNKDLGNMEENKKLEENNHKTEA
Experimental: as §1, §2
(§4) Oligonucleotides were designed and ordered to generate the ALCAM, BCAM and MCAM intracellular (cytosolic) domains. These included a 5′ NheI site, Kozak sequence and initiating Methionine and then DNA sequences corresponding to ALCAM residues 552-583, BCAM residues 569-628 and MCAM residues 584-637 respectively (Note that as residue 551 of ALCAM is Methionine, the cytosolic tail of ALCAM effectively corresponded to residues 551-583). The pCIneo parental vector was digested with NheI and NotI restriction enzymes, and the DNA of the fragments of the ALCAM, BCAM and MCAM tails/cytosolic domains were ligated into the digested plasmid. After transformation and recovery, colonies were screened and individual clones sequenced. The sequence of the insert was confirmed by DNA sequencing (Micromon, Monash University). A full-length clone of Mouse ALCAM (BC027280) was purchased from Origene. The untagged clone was supplied in the vector pCMV6. Overlapping DNA sequences were ordered to generate the ALCAM559-580 fragment oligonucleotide. These included a 5′ NheI site, Kozak sequence and initiating Methionine and then DNA sequences corresponding to ALCAM residues 559-580. The pCIneo parental vector was digested with NheI and NotI restriction enzymes, and the ALCAM559-580 construct DNA was ligated into the digested plasmid. After transformation and recovery, colonies were screened and individual clones sequenced.
(§5) After 2 hours of exposure to Ang II (1 μM) cells were placed in Trizol, mRNA extracted and cDNA synthesized. Changes in the gene expression of the NFκB subunit, p65 (RelA) or NFκB-activated target genes (e.g ICAM-1) were estimated by quantitative real-time RT-PCR, performed using the TaqMan system based on real-time detection of accumulated fluorescence (ABI Prism 7700, Perkin-Elmer Inc, PE Biosystems, Foster City, Calif., USA). Gene expression was normalized to 18S mRNA and reported as fold change compared to the level of expression in untreated control mice/cells, which were given an arbitrary value of 1.

AT1R-CHO cells = assay: p65 expression in AT1R-CHO cells expressing the truncated construct alone; format: cell-based, Chinese Hamster; conditions: for induction of p65 expression by Ang II when the construct alone is expressed: AT1R-CHO cells, Ang II 1 μM (FIG. 3A, 5A, 5B); for induction of p65 expression following exposure to S100A8/9 when the construct alone is expressed: S100A8/9 1 μM (FIG. 4A)
Experimental: as §1, §2, §4, §5

[3] = molecular target: T3, cytosolic tail of ALCAM, ALCAM551-583 (Homo sapiens, UniProt Q13740); assay: Ang II-induced ICAM-1 expression in ARPE cells transfected with cytosolic tail of ALCAM; format: cell-based; conditions: Ang II 1 μM
T3 construct: corresponds to residues 551-583 of ALCAM, with initial Methionine already present; expressed in transfected cells; host or cells: human ARPE (adult retinal pigment epithelial) cells; insert in pCIneo
T3 sequence (Q13740 551-583 limits assumed): T2 sequence (Q13740 551-583)
Experimental: as §1
(§6) Oligonucleotides were designed and ordered to generate the ALCAM, BCAM and MCAM intracellular (cytosolic) domains. These included a 5′ NheI site, Kozak sequence and initiating Methionine and then DNA sequences corresponding to ALCAM residues 552-583, BCAM residues 569-628 and MCAM residues 584-637 respectively (Note that as residue 551 of ALCAM is Methionine, the cytosolic tail of ALCAM effectively corresponded to residues 551-583). […]
as §3

[4] = molecular target: T1, full length murine ALCAM1-583; assay: S100A8/A9-induced PCNA expression in CHO cells transfected with full length murine ALCAM; format: cell-based; conditions: S100A8/A9 1 μM 2 h, co-transfection (FIG. 4A)
Experimental: as §1
as §6, with “551-583). The pCIneo parental vector was digested with NheI and NotI restriction enzymes, and the DNA of the fragments of the ALCAM, BCAM and MCAM tails/cytosolic domains were ligated into the digested plasmid.” for “551-583).”
as §3, with “After 2 hours of exposure to Ang II (1 μM) cells were placed in Trizol, mRNA extracted and cDNA synthesized.” left out

[5] = molecular target: T4, cytosolic tail of MCAM, MCAM584-637 (Homo sapiens, UniProt P43121); assay: Ang II-induced ICAM-1 expression in ARPE cells transfected with cytosolic tail of MCAM; format: cell-based; design: corresponds to residues 584-637 of MCAM plus an initiating Methionine; initiating Methionine (N); expressed in transfected cells; host or cells: human ARPE (adult retinal pigment epithelial) cells; insert in pCIneo; conditions: Ang II 1 μM, co-transfection (FIG. 2B)
T4 sequence (P43121 with tags, fused parts or gaps): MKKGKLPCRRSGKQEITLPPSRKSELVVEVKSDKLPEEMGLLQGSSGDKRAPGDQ
Experimental: as §1, §6, §3

[6] = molecular target: T5, cytosolic tail of BCAM, BCAM569-628 (Homo sapiens, UniProt P50895); assay: Ang II-induced ICAM-1 expression in ARPE cells transfected with cytosolic tail of BCAM; format: cell-based; design: corresponds to residues 569-628 of BCAM plus an initiating Methionine; initiating Methionine (N); expressed in transfected cells; host or cells: human ARPE (adult retinal pigment epithelial) cells; insert in pCIneo; conditions: Ang II 1 μM, treatment with oligopeptide (FIG. 2C)
T5 sequence (P50895 with tags, fused parts or gaps): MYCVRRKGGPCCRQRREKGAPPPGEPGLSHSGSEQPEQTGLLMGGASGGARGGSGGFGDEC
Experimental: as §1, §6, §3

[7] = molecular target: T6, cytosolic tail of human EpCAM, EpCAM289-314 (Homo sapiens, UniProt P16422); assay: Ang II-induced p65 expression in AT1R-CHO cells transfected with cytosolic tail of EpCAM; format: cell-based; conditions: Ang II 1 μM, co-transfection (FIG. 3J)
T6 construct: corresponds to residues 289-314 of EpCAM plus an initiating Methionine; initiating Methionine (N); expressed in transfected cells; host or cells: AT1R-CHO (CHO stably transfected with human AT1R-Rluc8), transient transfection
T6 sequence (P16422 with tags, fused parts or gaps limits assumed): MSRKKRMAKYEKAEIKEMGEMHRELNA
Experimental: as §1, §2, §5

[8] = molecular target: T7, cytosolic tail of human CADM4, CADM4346-388 (Homo sapiens, UniProt Q8NFZ8); assay: Ang II-induced p65 expression in AT1R-CHO cells transfected with cytosolic tail of CADM4; format: cell-based; conditions: Ang II 1 μM, co-transfection (FIG. 3K)
T7 construct: initiating Methionine (N); expressed in transfected cells; host or cells: AT1R-CHO (CHO stably transfected with human AT1R-Rluc8), transient transfection
T7 sequence (Q8NFZ8 with tags, fused parts or gaps): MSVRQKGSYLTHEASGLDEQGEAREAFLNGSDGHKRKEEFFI
Experimental: as §1, §2, §5

[9] = molecular target: T5, cytosolic tail of BCAM, BCAM569-628; assay: Ang II-induced p65 expression in AT1R-CHO cells transfected with cytosolic tail of BCAM; format: cell-based; design: corresponds to residues 569-628 of BCAM plus an initiating Methionine; initiating Methionine (N); expressed in transfected cells; host or cells: AT1R-CHO (CHO stably transfected with human AT1R-Rluc8); insert in pCIneo; conditions: Ang II 1 μM, co-transfection (FIG. 3H)
Experimental: as §1, §2
(§7) Oligonucleotides were designed and ordered to generate the ALCAM, BCAM and MCAM intracellular (cytosolic) domains. […]
as §3

[10] = molecular target: T4, cytosolic tail of MCAM, MCAM584-637; assay: Ang II-induced p65 expression in AT1R-CHO cells transfected with cytosolic tail of MCAM; format: cell-based; design: corresponds to residues 584-637 of MCAM plus an initiating Methionine; initiating Methionine (N); expressed in transfected cells; host or cells: AT1R-CHO (CHO stably transfected with human AT1R-Rluc8); insert in pCIneo; conditions: Ang II 1 μM, co-transfection (FIG. 3I)
Experimental: as §1, §2, §7, §3

induction of p65-NFκB expression by Ang II via AT1R-dependent transactivation of full length murine ALCAM1-583 [1]	induction of p65-NFκB expression by Ang II via transactivation of the cytosolic tail of human ALCAM, ALCAM551-583 [2]	NFKB-dependent induction of ICAM-1 gene expression by Ang II via ALCAM551-583 ([3]; co-transfection (FIG. 2A))	ligand-dependent signalling (PCNA expression) via murine ALCAM activated by S100A8/A9 [4]	NFKB-dependent induction of ICAM-1 gene expression by Ang II via MCAM584-637 [5]	proinflammatory signalling (ICAM-1) induced by Ang II mediated by the cytosolic tail of ALCAM ([3]; treatment with oligopeptide (FIG. 2C))	NFKB-dependent induction of ICAM-1 gene expression by Ang II via BCAM569-628 [6]	induction of p65-NFκB expression by Ang II via transactivation of EpCAM289-314 [7]	induction of p65-NFκB expression by Ang II via transactivation of CADM4346-388 [8]	induction of p65-NFκB expression by Ang II via transactivation of BCAM569-628 [9]	induction of p65-NFκB expression by Ang II via transactivation of MCAM584-637 [10]	Sequence	induction of p65 expression by Ang II when the construct alone is expressed (AT1R-CHO cells)	induction of p65 expression following exposure to S100A8/9 when the construct alone is expressed (AT1R-CHO cells)
inhibited	inhibited	inhibited	inhibited	inhibited							MGEERKAPENQEEEEERAELNQ [RAGE370-390]	no induction of p65 expression is observed	no induction of p65 expression is observed
					inhibited	inhibited					MLWQRRQRRGEERKAPENQEEEEERAELNQAEEPEAGESSTGGP (Synthetic peptide - Truncated amino acid sequence of human RAGE protein corresponding to residues 362 to 404 of human RAGE protein with a mutation of Serine 391 to Alanine plus an initiating methionine residue) [S391A-RAGE362-404, entire cytosolic tail of RAGE with serine391 mutated to alanine]		
	prevents induction						prevents induction	prevents induction	prevents induction	prevents induction	QEEEEERAELNQ (Synthetic peptide - Truncated amino acid sequence corresponding to residues 379 to 390 of human RAGE protein) [RAGE379-390]	no induction of p65 expression is observed	no induction of p65 expression is observed
